Consider two molecules from patent publication US20210371529A1 (Innovent, published 2021).

Changes are numbered by the printed parent chain.

Assay [1] deals with T1, LAG-3 on activated human CD4+ T cells (human, UniProt P18627 23-525).
T1 construct: whole, on cells; also called endogenous LAG-3
T1 sequence (looked up): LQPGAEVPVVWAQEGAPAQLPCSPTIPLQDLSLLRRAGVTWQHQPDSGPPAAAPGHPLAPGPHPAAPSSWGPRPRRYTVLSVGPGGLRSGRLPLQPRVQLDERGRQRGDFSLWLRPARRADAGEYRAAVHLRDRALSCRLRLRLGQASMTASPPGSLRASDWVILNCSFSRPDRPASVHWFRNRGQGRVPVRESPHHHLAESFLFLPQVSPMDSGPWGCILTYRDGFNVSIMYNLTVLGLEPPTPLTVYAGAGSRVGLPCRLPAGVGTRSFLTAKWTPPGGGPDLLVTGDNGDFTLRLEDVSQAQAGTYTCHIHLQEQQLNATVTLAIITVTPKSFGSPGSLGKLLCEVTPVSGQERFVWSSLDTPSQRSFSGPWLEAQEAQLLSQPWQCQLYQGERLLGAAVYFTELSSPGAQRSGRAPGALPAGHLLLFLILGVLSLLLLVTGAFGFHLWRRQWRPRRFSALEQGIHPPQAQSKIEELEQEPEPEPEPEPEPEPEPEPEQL
Nature of the assay: flow cytometry on activated human CD4+ T cells, MFI curve. How it is done: CD4+ T cell isolation: This was performed according to the ‘Untouched CD4+ T cell isolation’ kit instructions (11346D, Invitrogen). PBMCs were left for 2 h before the cell suspension was pipetted into a 15-mL centrifugation tube. The cells were centrifuged at 200 g for 10 min, and the precipitate was resuspended with 500 μL of a separating medium, 100 μL of AB type serum and 100 μL of purified antibody. The mixture was incubated for 20 min at 4° C., and washed once with the separating medium. 500 μL of a Bead Buffer (Invitrogen) was added for an incubation of 15 min, and the beads were then removed by a magnetic field. The mixture was washed once with a T cell culture medium, and resuspended with 8 mL of a culture medium. The resulting mixture was then incubated at 37° C. in presence of 6% CO₂.
According to the ratio of magnetic beads to CD4⁺ T cells equivalent to 1:1, anti-CD3/CD28 magnetic beads (Gibco) were added to CD4⁺ T cells for stimulation for 3 days. The cell density was adjusted to 1×10⁶/mL. The cells were loaded into a first well, 150 μL/well, and into other wells, 100 μL/well. […] The samples were mixed well. […] The mixture was resuspended in 60 μL of PBS and analyzed by flow cytometry. The flow cytometry was performed on an Accuri C6 system (BD Biosciences), and a concentration-dependent curve was fitted with GraphPad according to the mean fluorescence intensity (MFI).

In assay [2] the target is T2, human LAG-3-His (human, UniProt P18627 23-450).
T2 construct: Bought antigen (ArcoBiosystems), 100 nM in solution in the ForteBio assay; also called human LAG-3 antigen (ArcoBiosystems); hLAG-3; not shown: His tag
T2 sequence (looked up): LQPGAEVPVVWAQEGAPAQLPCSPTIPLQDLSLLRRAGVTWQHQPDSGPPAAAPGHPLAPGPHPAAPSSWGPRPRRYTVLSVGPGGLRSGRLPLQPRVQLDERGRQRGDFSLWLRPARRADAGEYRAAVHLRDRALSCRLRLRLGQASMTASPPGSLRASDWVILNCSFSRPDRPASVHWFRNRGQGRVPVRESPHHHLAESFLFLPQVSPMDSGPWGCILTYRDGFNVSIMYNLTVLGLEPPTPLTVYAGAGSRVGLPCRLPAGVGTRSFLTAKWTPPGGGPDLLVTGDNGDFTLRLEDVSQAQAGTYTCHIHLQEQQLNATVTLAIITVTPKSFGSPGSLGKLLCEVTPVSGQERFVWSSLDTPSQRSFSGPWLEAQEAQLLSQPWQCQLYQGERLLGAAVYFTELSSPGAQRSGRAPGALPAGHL
Nature of the assay: BLI (ForteBio), antibody on AHQ tip, human LAG-3-His 100 nM in solution. How it is done: (§1) The purified antibody obtained as described above was loaded on-line onto an AHQ sensor (ForteBio) for ForteBio affinity assay. The sensor with the loaded antibody was then exposed to 100 nM of a human LAG-3 antigen (ArcoBiosystems) for 5 minutes before transferring the sensor to the assay buffer for dissociation for 5 minutes for dissociation rate measurement. Kinetic analysis was performed using a 1:1 binding model.
For orientation: In BLI a coated tip is dipped into the sample, and binding shifts an interference pattern.

In assay [3] the target is T2, human LAG-3-His. Description: BLI (ForteBio), antibody on AHQ tip, human LAG-3-His 100 nM in solution, univalent. The protocol: as §1
In assay [4] the target is T3, human LAG-3 overexpressed on HEK293 cells (human, UniProt P18627 23-525).
T3 construct: whole, on cells; also called 293-hLAG-3 cells; hLAG-3 on the cell surface
T3 sequence (looked up): T1 sequence (looked up)
Nature of the assay: flow cytometry on 293-hLAG-3 cells, MFI curve. The protocol: The binding of the 4 exemplary antibodies of the invention described above to human LAG-3 was measured in a flow cytometry-based assay. 293 cells (293-hLAG-3 cells) over-expressing human LAG-3 were generated by transfecting human embryonic kidney 293 cells (Invitrogen) with pCHO1.0 vectors (Invitrogen) carrying human LAG-3 cDNA (Sino Biological) cloned into multiple cloning sites (MCSs). 293-hLAG-3 cells (0.2×10⁶ cells) were mixed with different concentrations of antibodies (ADI-26789, ADI-26869 and reference 25F7) prepared as described above (the antibodies were serially three-fold diluted from a maximum concentration of 500 nM in PBS containing 0.1% bovine serum albumin (BSA) until the 8th concentration). The cells were incubated on ice for 30 min. The cells were then washed at least twice prior to addition of a secondary antibody (a PE-labeled goat anti-human IgG antibody, Southern Biotech, final concentration […]) diluted in 1:100, and incubated on ice (protected from light) for 30 minutes. The cells were washed at least twice and analyzed by flow cytometry. The flow cytometry assay was performed on an Accuri C6 system (BD Biosciences), and a concentration-dependent curve was fitted with GraphPad according to the mean fluorescence intensity (MFI).
On the technique in general: In flow cytometry, cells or beads pass a laser one at a time.

B1: ADI-31851 (antibody, human IgG4 S228P, kappa, F234A L235A, V domains shown)
VH: QLQLQESGPGLVKPSETLSLTCTVSGGSISSPDYYWGWIRQPPGKGLEWIGSIVYSGYTYYNPSLKSRVTISVDTSKNQFSLKLSSVTAADTAVYYCARVRTWDQSFDIWGQGTMVTVSS
VL: DIQMTQSPSSLSASVGDRVTITCQAGQDISNYLNWYQQKPGKAPKLLIYDASNLETGVPSRFSGSGSGTDFTFTISSLQPEDIATYYCQQVLELPPWTFGGGTKVEIKR
notes: IgG4 heavy chain constant region with kappa light chain; expressed in HEK293 cells
For B1, the figures for the EC50 in assay [1] and in assay [4] were 0.013 nM and 0.501 nM, respectively. In addition, in assay [2], the koff (commonly a measure of how fast the partners let go of each other) is 0.0002 s⁻¹. Also, the kon (usually the rate constant with which the complex forms) in assay [2] was determined as 330000 M⁻¹ s⁻¹. Also, in assay [3], binding was characterised by a dissociation constant (Kd) of 0.606 nM.

B2: ADI-31853 (antibody, human IgG4 S228P, kappa, F234A L235A, V domains shown)
VH: B1 VH with S30Y, P32E, D33S, Q105A, S106A
VL: B1 VL with G26S
notes: as for B1
For B2, the EC50 (usually the concentration giving half of the maximal effect) in assay [1] turned out to be 0.011 nM. In assay [2], the koff worked out at 0.0002 s⁻¹ and the kon was determined as 322000 M⁻¹ s⁻¹. In addition, binding in assay [3] was characterised by a dissociation constant (Kd) of 0.622 nM. In addition, the EC50 in assay [4] came to 0.433 nM.
